Substitutions are numbered along the chain they refer to.
T1: human GIP receptor (human) (UniProt P48546)
T1 sequence (looked up): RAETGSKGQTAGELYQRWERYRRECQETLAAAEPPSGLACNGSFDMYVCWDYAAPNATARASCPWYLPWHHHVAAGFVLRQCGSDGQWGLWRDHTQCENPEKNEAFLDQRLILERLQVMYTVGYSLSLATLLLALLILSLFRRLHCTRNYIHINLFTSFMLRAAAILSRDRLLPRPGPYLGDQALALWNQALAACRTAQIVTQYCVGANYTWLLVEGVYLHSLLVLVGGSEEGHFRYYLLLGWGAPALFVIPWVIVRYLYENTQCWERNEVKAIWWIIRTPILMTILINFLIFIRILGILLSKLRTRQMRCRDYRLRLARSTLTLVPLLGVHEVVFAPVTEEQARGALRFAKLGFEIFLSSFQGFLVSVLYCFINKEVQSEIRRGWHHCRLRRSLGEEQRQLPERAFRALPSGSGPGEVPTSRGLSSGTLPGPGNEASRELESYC

B1: Example 151 (peptide)
chain: YXQGTFTSDFSQXLDKKAQXAFIEYLLEXGPSSGAPPPSGS
modifications: Lys acylated with AEEA-γGlu-C18 diacid; non-natural residues; C-amide; synthetic construct; SITE 2: note = 2-Aminoisobutyric Acid; SITE 13: note = alpha-methyl-leucine; SITE 17: note = Lysine is chemically modified through conjugation of the epsilon-amino group of the Lysine side chain with (2-[2-(2-Amino-ethoxy)-ethoxy]-acetyl)-(gamma-Glu)-CO-(CH2) 16-CO2H; SITE 20: n
B2: Example 162 (peptide)
chain: B1 chain with Q12X, X29G, P31H, S39G
modifications: Aib, Orn, αMeL; acylated Lys; C-terminal amide; synthetic construct; SITE 2: note = 2-Aminoisobutyric Acid; SITE 12: note = L-ornithine; SITE 13: note = alpha-methyl-leucine; SITE 17: note = Lysine is chemically modified through conjugation of the epsilon-amino group of the Lysine side chain with (2-[2-(2-Amino-ethoxy)-ethoxy]-acetyl)-(gamma-Glu)
B3: Example 166 (peptide)
chain: B1 chain with Q12X, A35E
modifications: Aib, Orn, αMeL, acylated K, C-terminal amide; synthetic construct; SITE 2: note = 2-Aminoisobutyric Acid; SITE 12: note = L-ornithine; SITE 13: note = alpha-methyl-leucine; SITE 17: note = Lysine is chemically modified through conjugation of the epsilon-amino group of the Lysine side chain with (2-[2-(2-Amino-ethoxy)-ethoxy]-acetyl)2-(gamma-Glu)
B4: Example 148 (peptide)
chain: B1 chain with Q12R, X29G, P31E
modifications: Aib, αMeL; lysine acylated C18 diacid; C-terminal amide; synthetic construct; SITE 2: note = 2-Aminoisobutyric Acid; SITE 13: note = alpha-methyl-leucine; SITE 17: note = Lysine is chemically modified through conjugation of the epsilon-amino group of the Lysine side chain with (2-[2-(2-Amino-ethoxy)-ethoxy]-acetyl)-(gamma-Glu)-CO-(CH2) 16-CO2H; SITE 20: n
B5: Example 141 (peptide)
chain: B1 chain with Q12K, X29G
modifications: synthetic construct; SITE 2: note = 2-Aminoisobutyric Acid; SITE 13: note = alpha-methyl-leucine; SITE 17: note = Lysine is chemically modified through conjugation of the epsilon-amino group of the Lysine side chain with (2-[2-(2-Amino-ethoxy)-ethoxy]-acetyl)-(gamma-Glu)-CO-(CH2) 16-CO2H; SITE 20: n
B6: Example 143 (peptide)
chain: B1 chain with Q12R, X29G
modifications: synthetic construct; SITE 2: note = 2-Aminoisobutyric Acid; SITE 13: note = alpha-methyl-leucine; SITE 17: note = Lysine is chemically modified through conjugation of the epsilon-amino group of the Lysine side chain with (2-[2-(2-Amino-ethoxy)-ethoxy]-acetyl)-(gamma-Glu)-CO-(CH2) 16-CO2H; SITE 20: n
B7: Example 157 (peptide)
chain: B1 chain with Q12X, X29A, A35E, S41Q
modifications: Aib, Orn, alpha-methyl-Leu, D-Ala, lipidated Lys, amide; synthetic construct; SITE 2: note = 2-Aminoisobutyric Acid; SITE 12: note = L-ornithine; SITE 13: note = alpha-methyl-leucine; SITE 17: note = Lysine is chemically modified through conjugation of the epsilon-amino group of the Lysine side chain with (2-[2-(2-Amino-ethoxy)-ethoxy]-acetyl)2-(gamma-Glu)
B8: Example 163 (peptide)
chain: B1 chain with Q12X, X29G, P31X, S39G
modifications: non-natural residues; lysine acylated with AEEA linker C18 diacid; C-amide; synthetic construct; SITE 2: note = 2-Aminoisobutyric Acid; SITE 12: note = L-ornithine; SITE 13: note = alpha-methyl-leucine; SITE 17: note = Lysine is chemically modified through conjugation of the epsilon-amino group of the Lysine side chain with (2-[2-(2-Amino-ethoxy)-ethoxy]-acetyl)-(gamma-Glu)
B9: Example 158 (peptide)
chain: B1 chain with Q12X, X29G, S39G, S41T
modifications: Lys acylated AEEA-γGlu-C18 diacid; non-natural residues; C-terminal amide; synthetic construct; SITE 2: note = 2-Aminoisobutyric Acid; SITE 12: note = L-ornithine; SITE 13: note = …; SITE 17: note = Lysine is chemically modified through conjugation of the epsilon-amino group of the Lysine side chain with (2-[2-(2-Amino-ethoxy)-ethoxy]-acetyl)-(gamma-Glu)

Target: hGLP-1R (Homo sapiens, UniProt P43220)
Test: cell-based or functional assay

hGLP-1R, sequence (P43220 24-463): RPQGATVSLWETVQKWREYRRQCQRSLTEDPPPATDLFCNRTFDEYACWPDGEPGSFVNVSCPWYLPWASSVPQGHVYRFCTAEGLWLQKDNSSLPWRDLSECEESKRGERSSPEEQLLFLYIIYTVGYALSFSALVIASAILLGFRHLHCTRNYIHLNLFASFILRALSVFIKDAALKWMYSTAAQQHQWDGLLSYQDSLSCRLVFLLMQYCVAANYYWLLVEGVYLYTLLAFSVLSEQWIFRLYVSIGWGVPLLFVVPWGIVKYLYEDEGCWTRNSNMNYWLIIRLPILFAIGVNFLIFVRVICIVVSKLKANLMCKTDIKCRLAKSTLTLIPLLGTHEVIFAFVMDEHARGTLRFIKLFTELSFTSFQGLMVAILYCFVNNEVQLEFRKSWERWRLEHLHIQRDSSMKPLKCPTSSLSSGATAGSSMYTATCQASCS

**Q.** What does the source list for B1?
**A.** Relative cAMP EC50, nM (0.1% casein): 1.6 nM; cAMP Rel EC50, nM (1% HSA): 384 nM

**Q.** With B2 as the binder, how does the Relative cAMP EC50, nM (0.1% casein) read?
**A.** 4.72 nM

**Q.** And the cAMP Rel EC50, nM (1% HSA)?
**A.** 786 nM

**Q.** For B3, which Relative cAMP EC50, nM (0.1% casein) is on record?
**A.** 6.96 nM

**Q.** And the cAMP Rel EC50, nM (1% HSA)?
**A.** 1500 nM

**Q.** For B4, which Relative cAMP EC50, nM (0.1% casein) is on record?
**A.** 2.82 nM

**Q.** What about the cAMP Rel EC50, nM (1% HSA) of the same binder?
**A.** 870 nM

**Q.** What does the source list for B5?
**A.** Relative cAMP EC50: 1.96 nM; cAMP Rel EC50, nM (in the presence of 1% HSA): 562 nM

**Q.** B6 was tested. Which Relative cAMP EC50 did it give?
**A.** 2.44 nM

**Q.** And the cAMP Rel EC50, nM (in the presence of 1% HSA)?
**A.** 594 nM

**Q.** How did the Relative cAMP EC50, nM (0.1% casein) turn out when B7 was run?
**A.** 3.04 nM

**Q.** What about the cAMP Rel EC50, nM (1% HSA) of the same binder?
**A.** 496 nM

**Q.** What does the source list for B8?
**A.** Relative cAMP EC50, nM (0.1% casein): 6.5 nM; cAMP Rel EC50, nM (1% HSA): 762 nM

**Q.** How did the Relative cAMP EC50, nM (0.1% casein) turn out when B9 was run?
**A.** 2.49 nM

**Q.** And the cAMP Rel EC50, nM (1% HSA)?
**A.** 184 nM

Target: human GLP-1R (SNAP-GLP-1R expressed in HEK293 cells) (human) (UniProt P43220)
Test: cell-based or functional assay

human GLP-1R (SNAP-GLP-1R expressed in HEK293 cells) (human), sequence (P43220 24-463): as above

**Q.** B1 was tested. Which GLP1R Internalization EC50 did it give?
**A.** 77.8 nM

**Q.** What about the Internalization % TOP of the same binder?
**A.** 55%

**Q.** What does the source list for B2?
**A.** GLP1R Internalization EC50: 48.8 nM; Internalization % TOP: 44.8%

**Q.** For B3, which GLP1R Internalization EC50 is on record?
**A.** 74.6 nM

**Q.** And the Internalization % TOP?
**A.** 44.2%

**Q.** Which results are given for B4?
**A.** GLP1R Internalization EC50: 95.5 nM; Internalization % TOP: 37.4%

**Q.** Which results are given for B5?
**A.** GLP1R Internalization EC50: 95.3 nM; Internalization % TOP: 64.1%

**Q.** Which GLP1R Internalization EC50 does the source give for B6 here?
**A.** 337 nM

**Q.** And the Internalization % TOP?
**A.** 43%

**Q.** B7 was tested. Which GLP1R Internalization EC50 did it give?
**A.** 60.3 nM

**Q.** And the Internalization % TOP?
**A.** 53.3%

**Q.** Which results are given for B8?
**A.** GLP1R Internalization EC50: 143 nM; Internalization % TOP: 37.8%

**Q.** B9 was tested. Which GLP1R Internalization EC50 did it give?
**A.** 104 nM

**Q.** What about the Internalization % TOP of the same binder?
**A.** 52.4%

Target: human glucagon receptor (human) (UniProt P47871)
Test: cell-based or functional assay

human glucagon receptor (human), sequence (P47871 26-477): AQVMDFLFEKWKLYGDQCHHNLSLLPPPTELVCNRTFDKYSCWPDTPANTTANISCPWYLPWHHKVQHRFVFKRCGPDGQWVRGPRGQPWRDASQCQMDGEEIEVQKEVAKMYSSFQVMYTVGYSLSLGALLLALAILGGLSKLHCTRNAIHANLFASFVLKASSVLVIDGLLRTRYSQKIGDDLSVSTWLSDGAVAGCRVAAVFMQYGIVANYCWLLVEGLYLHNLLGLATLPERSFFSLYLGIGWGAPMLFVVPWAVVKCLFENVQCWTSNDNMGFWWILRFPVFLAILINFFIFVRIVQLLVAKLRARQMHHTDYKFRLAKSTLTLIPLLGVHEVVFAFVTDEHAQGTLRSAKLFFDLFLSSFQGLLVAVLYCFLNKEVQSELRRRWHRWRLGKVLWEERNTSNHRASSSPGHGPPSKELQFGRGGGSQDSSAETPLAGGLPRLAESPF

**Q.** What does the source list for B1?
**A.** Relative cAMP EC50, nM (0.1% casein): 3.5 nM; cAMP Rel EC50, nM (1% HSA): 1420 nM

**Q.** What does the source list for B2?
**A.** Relative cAMP EC50, nM (0.1% casein): 4.72 nM; cAMP Rel EC50, nM (1% HSA): 558 nM

**Q.** For B3, which Relative cAMP EC50, nM (0.1% casein) is on record?
**A.** 3.82 nM

**Q.** And the cAMP Rel EC50, nM (1% HSA)?
**A.** 724 nM

**Q.** With B4 as the binder, how does the Relative cAMP EC50, nM (0.1% casein) read?
**A.** 3.92 nM

**Q.** And the cAMP Rel EC50, nM (1% HSA)?
**A.** 1330 nM

**Q.** Which Relative cAMP EC50 does the source give for B5 here?
**A.** 1.77 nM

**Q.** What about the cAMP Rel EC50, nM (in the presence of 1% HSA) of the same binder?
**A.** 877 nM

**Q.** B6 was tested. Which Relative cAMP EC50 did it give?
**A.** 4.51 nM

**Q.** What about the cAMP Rel EC50, nM (in the presence of 1% HSA) of the same binder?
**A.** 1690 nM

**Q.** What does the source list for B7?
**A.** Relative cAMP EC50, nM (0.1% casein): 4.16 nM; cAMP Rel EC50, nM (1% HSA): 838 nM

**Q.** With B8 as the binder, how does the Relative cAMP EC50, nM (0.1% casein) read?
**A.** 5.6 nM

**Q.** And the cAMP Rel EC50, nM (1% HSA)?
**A.** 790 nM

**Q.** How did the Relative cAMP EC50, nM (0.1% casein) turn out when B9 was run?
**A.** 3.72 nM

**Q.** And the cAMP Rel EC50, nM (1% HSA)?
**A.** 325 nM

Target: T1, human GIP receptor (human)
Test: cell-based or functional assay

**Q.** Which Relative cAMP EC50, nM (0.1% casein) does the source give for B1 here?
**A.** 0.0784 nM

**Q.** And the cAMP Rel EC50, nM (1% HSA)?
**A.** 14.9 nM

**Q.** Which results are given for B2?
**A.** Relative cAMP EC50, nM (0.1% casein): 0.222 nM; cAMP Rel EC50, nM (1% HSA): 37.5 nM

**Q.** With B3 as the binder, how does the Relative cAMP EC50, nM (0.1% casein) read?
**A.** 0.118 nM

**Q.** What about the cAMP Rel EC50, nM (1% HSA) of the same binder?
**A.** 21 nM

**Q.** For B4, which Relative cAMP EC50, nM (0.1% casein) is on record?
**A.** 0.352 nM

**Q.** What about the cAMP Rel EC50, nM (1% HSA) of the same binder?
**A.** 74.2 nM

**Q.** Which Relative cAMP EC50 does the source give for B5 here?
**A.** 0.21 nM

**Q.** And the cAMP Rel EC50, nM (in the presence of 1% HSA)?
**A.** 62.1 nM

**Q.** B6 was tested. Which Relative cAMP EC50 did it give?
**A.** 0.211 nM

**Q.** What about the cAMP Rel EC50, nM (in the presence of 1% HSA) of the same binder?
**A.** 63.9 nM

**Q.** How did the Relative cAMP EC50, nM (0.1% casein) turn out when B7 was run?
**A.** 0.183 nM

**Q.** What about the cAMP Rel EC50, nM (1% HSA) of the same binder?
**A.** 22.2 nM

**Q.** Which Relative cAMP EC50, nM (0.1% casein) does the source give for B8 here?
**A.** 0.376 nM

**Q.** And the cAMP Rel EC50, nM (1% HSA)?
**A.** 52 nM

**Q.** B9 was tested. Which Relative cAMP EC50, nM (0.1% casein) did it give?
**A.** 0.245 nM

**Q.** And the cAMP Rel EC50, nM (1% HSA)?
**A.** 24.7 nM

From US20240270821A1, “GIP/GLP1/GCG TRI-RECEPTOR AGONISTS AND USES THEREOF” (priority 2023, published 2024)
